We go through three molecules from patent publication US20230086210A1 (Hoffmann-La Roche, published 2023).

In test [1] the target is T1, human PD-L1 on MKN45-huPD-L1 cells (human, UniProt Q9NZQ7 19-290).
T1 construct: The entry is the complete precursor; also called MKN45-PD-L1; human PD-L1-expressing MKN45 cells
Description: flow cytometry on MKN45-huPD-L1 cells, PE-conjugated goat F(ab')2 anti-human Fcγ, geo mean of fluorescence, baseline corrected. (In general: A flow cytometer gives signals particle by particle.)
Description: All values are baseline corrected by subtracting the baseline values of the blank control (e.g. no primary only secondary detection antibody).
Cells were incubated for 30 min at 4° C. and then washed twice with 80 μL/well DPBS. […] Cells were washed twice with 80 μL/well DPBS and then fixed in 30 μL/well DPBS containing 1% formaldehyde for at least 15 minutes.

Test [2] deals with human 4-1BB on Jurkat-hu4-1BB-NFκB-luc2 reporter cells (human, UniProt Q07011 24-255). Briefly: cell-based or functional assay. Further details: AUC of NFκB-activation-induced Luciferase activity curve: unit not given beside the values.
Test [3] concerns the target T1, human PD-L1 on MKN45-huPD-L1 cells. Briefly: flow cytometry on MKN45-huPD-L1 cells, area under the binding curve. Further details: unit not given beside the values.

Sequence of human 4-1BB on Jurkat-hu4-1BB-NFκB-luc2 reporter cells (Q07011 24-255): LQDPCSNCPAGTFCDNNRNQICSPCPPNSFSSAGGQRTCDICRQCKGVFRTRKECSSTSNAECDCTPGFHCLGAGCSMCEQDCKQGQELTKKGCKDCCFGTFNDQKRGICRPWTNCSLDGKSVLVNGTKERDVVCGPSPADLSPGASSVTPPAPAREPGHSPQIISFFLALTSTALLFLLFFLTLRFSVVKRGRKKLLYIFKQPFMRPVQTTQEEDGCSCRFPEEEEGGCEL
T1 sequence (Q9NZQ7 19-290 limits assumed): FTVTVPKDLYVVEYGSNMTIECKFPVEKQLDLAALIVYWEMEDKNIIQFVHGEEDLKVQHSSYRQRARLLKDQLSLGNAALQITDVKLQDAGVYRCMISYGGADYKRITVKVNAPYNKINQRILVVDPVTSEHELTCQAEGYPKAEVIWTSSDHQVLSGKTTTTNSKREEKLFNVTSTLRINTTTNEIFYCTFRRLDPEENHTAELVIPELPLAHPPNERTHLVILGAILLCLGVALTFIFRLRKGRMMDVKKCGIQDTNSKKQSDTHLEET

B1: 4-1BB huIgG1 P329G LALA (anti-human 4-1BB clone 20H4.9 as huIgG1 P329G LALA) (antibody, V domains shown)
VH: QVQLQQWGAGLLKPSETLSLTCAVYGGSFSGYYWSWIRQSPEKGLEWIGEINHGGYVTYNPSLESRVTISVDTSKNQFSLKLSSVTAADTAVYYCARDYGPGNYDWYFDLWGRGTLVTVSS
VL: EIVLTQSPATLSLSPGERATLSCRASQSVSSYLAWYQQKPGQAPRLLIYDASNRATGIPARFSGSGSGTDFTLTISSLEPEDFAVYYCQQRSNWPPALTFGGGTKVEIK
notes: Human IgG1 with P329G L234A L235A
With B1, in test [1], the binding result is “no binding (tested: 100 nM)”. Also, in test [2], the “AUC of NFκB-activation-induced Luciferase activity curve” value was found to be 8870 and the “EC50 of NFκB-activation-induced Luciferase activity curve” value (“EC50” below) was found to be 0.32 nM. In test [3], this molecule yielded an AUC of 432.

B2: 4-1BB×PD-L1 2+1 (bispecific agonistic 4-1BB×PD-L1 antibody with bivalent binding to 4-1BB (clone 20H4.9) and monovalent binding to PD-L1, Head to Head 2+1 … (bispecific antibody)
heavy 1: QVQLQQWGAGLLKPSETLSLTCAVYGGSFSGYYWSWIRQSPEKGLEWIGEINHGGYVTYNPSLESRVTISVDTSKNQFSLKLSSVTAADTAVYYCARDYGPGNYDWYFDLWGRGTLVTVSSASTKGPSVFPLAPSSKSTSGGTAALGCLVEDYFPEPVTVSWNSGALTSGVHTFPAVLQSSGLYSLSSVVTVPSSSLGTQTYICNVNHKPSNTKVDEKVEPKSCDKTHTCPPCPAPEAAGGPSVFLFPPKPKDTLMISRTPEVTCVVVDVSHEDPEVKFNWYVDGVEVHNAKTKPREEQYNSTYRVVSVLTVLHQDWLNGKEYKCKVSNKALGAPIEKTISKAKGQPREPQVCTLPPSRDELTKNQVSLSCAVKGFYPSDIAVEWESNGQPENNYKTTPPVLDSDGSFFLVSKLTVDKSRWQQGNVFSCSVMHEALHNHYTQKSLSLSP
heavy 2: not shown
light 1: not shown
light 2: not shown
Take B2: in test [2], the “AUC of NFκB-activation-induced Luciferase activity curve” value worked out at 135000 and the “EC50” value came out at 0.037 nM.

B3: 4-1BB×PD-L1 1+1 (bispecific antibody with monovalent binding to 4-1BB (clone 20H4.9) and monovalent binding to PD-L1) (bispecific antibody)
heavy 1: QVQLQQWGAGLLKPSETLSLTCAVYGGSFSGYYWSWIRQSPEKGLEWIGEINHGGYVTYNPSLESRVTISVDTSKNQFSLKLSSVTAADTAVYYCARDYGPGNYDWYFDLWGRGTLVTVSSASTKGPSVFPLAPSSKSTSGGTAALGCLVEDYFPEPVTVSWNSGALTSGVHTFPAVLQSSGLYSLSSVVTVPSSSLGTQTYICNVNHKPSNTKVDEKVEPKSCDKTHTCPPCPAPEAAGGPSVFLFPPKPKDTLMISRTPEVTCVVVDVSHEDPEVKFNWYVDGVEVHNAKTKPREEQYNSTYRVVSVLTVLHQDWLNGKEYKCKVSNKALGAPIEKTISKAKGQPREPQVCTLPPSRDELTKNQVSLSCAVKGFYPSDIAVEWESNGQPENNYKTTPPVLDSDGSFFLVSKLTVDKSRWQQGNVFSCSVMHEALHNHYTQKSLSLSP
heavy 2: not shown
light 1: not shown
light 2: not shown
As to B3, in test [2], the “AUC of NFκB-activation-induced Luciferase activity curve” value is 122000 and the “EC50” value is 0.097 nM.
